Source: patent publication US9980982B2, “HE4 based therapy for malignant disease” (Women & Infants Hospital of Rhode Island, priority 2011, dated 2018)
Entries after “also recorded” stand apart in the source; their conditions may differ.

What was measured:
[1] = test system: CaOV-3; assay: Cell viability, exogenous recombinant HE4, CaOV-3; type: cell-based, Human
[2] = test system: SKOV-3 cells; assay: MTS cell viability assay, parental/wild-type SKOV-3 cells; type: cell-based, Human; details: for effect of recombinant HE4 on cisplatin efficacy in SKOV-3 cells: combination or pre-treatment with HE4 (4 ng/mL in FIG. 10B) plus cisplatin
Procedure: Cell growth and viability of cell lines (complete medium, 24 h incubation) was determined by the CellTiter 96® AQueous One Solution Assay (Promega Corp, Madison, Wis.) following the manufacturer's recommendations with modifications (Lange T S et al., 2008 PLOS One, 3(5):e2303). Experiments are expressed as the mean of triplicate determinations (X±SD) of a representative experiment in OD (cell growth) or % of absorbance by drug-treated versus untreated cells [=100%] (cell viability). Cisplatin (CDDP), paclitaxel, doxorubicin and camptothecin (CPT) were purchased from (Sigma Aldrich, St. Louis, Mo.).
To analyze the potential biological relevance of elevated HE4 production for ovarian cancer cells the efficacy of commonly used anticancer drugs was examined in a viability assay (FIG. 5). SKOV-3 clones or parental cells were treated with cisplatin, paclitaxel, doxorubicin, or camptothecin for 24 h in various concentrations as indicated and the cytotoxicity evaluated.

B1: recombinant HE4: exogenous recombinant human epididymal secretory protein E4 (protein)
chain: EKTGVCPELQADQNCTQECVSDSECADNLKCCSAGCATFCSLPNDKEGSCPQVNINFPQLGLCRDQCQVDSQCPGQMKCCRNGCGKVSCVTPNF
- effect on viability of CaOV-3 [1]: suppressed the viability
- effect of recombinant HE4 on cisplatin efficacy in SKOV-3 cells [2]: enhanced the efficacy of cisplatin; also recorded: synergized or enhanced suppression of cell-viability
- effect of recombinant HE4 on cisplatin efficacy in SKOV-3 cells ([2]; listed as HE4): enhanced the efficacy of cisplatin
- effect on viability of SKOV-3 cells ([2]; exogenous recombinant HE4): suppressed the viability of SKOV-3 cells
- IC50 ([2]; proliferating ovarian cancer cells (SKOV-3), read-out: IC50, reduction of cell viability): 1 to 8 µM
